Data reported in the supplement of paper PMC12783771.
± gives the standard deviation of the averaged measurements.

B1: library; numbered along this chain (parent)
chain: MNIQIGELAKRTACPVVTIRFYEQEGLLPPPGRSRGNFRLYGEEHVERLQFIRHCRSLDMPLSDVRTLLSYRKRPDQDCGEVNMLLDEHIRQVESRIGALLELKHHLVELREACSGARPAQSCGILQGLSDCVCDTRGTTAHPSD

Columns and labels:
[1] = variants of: B1; experiment: sfGFP reporter fluorescence (15 h) (µM FITC); higher = higher leak; conditions: library round: Round 0; ligand: none
In short: (§1)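 Linear PbrR templates were made by PCR, normalized to 5 nM with an Echo, and expressed in BL21 Star (DE3) PANOx-SP extract with the pPbrR-sfGFP reporter plasmid and 30 μg/mL GamS. Echo-assembled 1 μL reactions held 1 µM lead chloride, 30 µM zinc acetate or no metal and were incubated 15 hr at 30 °C. Endpoint sfGFP fluorescence was read on a Synergy Neo2 and expressed as µM FITC using standard curves. Up to three biological replicates were run.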

[2] = variants of: B1; experiment: sfGFP reporter fluorescence (15 h) (µM FITC); higher = stronger transcriptional activation; conditions: library round: Round 0
In short: as §1

Row | Variant | sfGFP reporter fluorescence [1] | sfGFP reporter fluorescence ([2]; ligand: 1 µM Pb) | sfGFP reporter fluorescence ([2]; ligand: 30 µM Zn)
1 | L68G | 0.06395 ± 0.00026 | 0.05827 ± 0.00052 | 0.0656 ± 0.00052
2 | L68K | 0.0608 ± 0.0021 | 0.0566 ± 0.0013 | 0.0638 ± 0.0036
3 | Y22G | 0.0594 ± 0.0031 | 0.05846 ± 0.00026 | 0.0605 ± 0.0015
4 | Y22C | 0.0614 ± 0.0044 | 0.0623 ± 0.00052 | 0.05919 ± 0.00026
5 | M1A | 0.0618 ± 0.0029 | 0.0715 ± 0.0047 | 0.124 ± 0.0015
6 | I97K | 0.0607 ± 0.0029 | 0.0597 ± 0.0021 | 0.102 ± 0.006
7 | I97G | 0.0555 ± 0.0013 | 0.0603 ± 0.0013 | 0.404 ± 0.014
8 | H45A | 0.0599 ± 0.0018 | 0.07275 ± 0.00026 | 0.687 ± 0.088
9 | G80A | 0.0577 ± 0.0029 | 0.0649 ± 0.0073 | 0.526 ± 0.039
10 | P61N D64K K104V L107C | 0.676 ± 0.011 | 2.12 ± 0.066 | 2.74 ± 0.35
11 | G128N | 0.0614 ± 0.0023 | 0.0704 ± 0.0042 | 0.875 ± 0.093
12 | G128L | 0.0715 ± 0.0031 | 0.203 ± 0.03 | 2.04 ± 0.21
13 | G128A | 0.09694 ± 0.00026 | 0.211 ± 0.0065 | 2.53 ± 0.17
14 | G128R | 0.161 ± 0.007 | 0.316 ± 0.038 | 3.05 ± 0.31
15 | G128K | 0.122 ± 0.0031 | 0.192 ± 0.007 | 3.05 ± 0.22
16 | G128M | 0.105 ± 0.0062 | 0.311 ± 0.025 | 3.04 ± 0.38
17 | L126M | 0.0594 ± 0.0015 | 0.0596 ± 0.0018 | 0.22 ± 0.032
18 | L126Q | 0.05901 ± 0.00052 | 0.0577 ± 0.0018 | 0.05534 ± 0.00052
19 | L126P | 0.05552 ± 0.00026 | 0.0555 ± 0.0023 | 0.05113 ± 0.00026
20 | L126G | 0.0539 ± 0.0015 | 0.05571 ± 0.00052 | 0.0502 ± 0.0021
21 | P61N K104V L107C | 0.283 ± 0.021 | 1.28 ± 0.11 | 2.54 ± 0.079
22 | I125P | 0.0559 ± 0.00078 | 0.05791 ± 0.00052 | 0.05351 ± 0.00052

Row | Variant | sfGFP reporter fluorescence [1] | sfGFP reporter fluorescence ([2]; ligand: 1 µM Pb) | sfGFP reporter fluorescence ([2]; ligand: 30 µM Zn)
23 | I125C | 0.0596 ± 0.00078 | 0.05901 ± 0.00052 | 0.0568 ± 0.0047
24 | M60L P61N K104V G128I | 0.148 ± 0.0083 | 0.448 ± 0.098 | 1.76 ± 0.23
25 | L107M | 0.0546 ± 0.0015 | 0.0605 ± 0.0026 | 0.371 ± 0.046
26 | L107K | 0.0561 ± 0.0057 | 0.05864 ± 0.00052 | 0.0861 ± 0.0026
27 | L107E | 0.05882 ± 0.00026 | 0.0746 ± 0.0096 | 0.288 ± 0.054
28 | L107P | 0.0568 ± 0.0015 | 0.0528 ± 0.0052 | 0.0621 ± 0.0018
29 | L107V | 0.0854 ± 0.001 | 0.19 ± 0.022 | 2.03 ± 0.021
30 | L107A | 0.514 ± 0.0098 | 1.97 ± 0.12 | 2.84 ± 0.79
31 | M60L P61N D64K K104V | 0.366 ± 0.0044 | 1.11 ± 0.035 | 3.03 ± 0.15
32 | P143T | 0.05772 ± 0.00026 | 0.0713 ± 0.0065 | 0.821 ± 0.11
33 | P143Y | 0.05846 ± 0.00026 | 0.0834 ± 0.0039 | 0.73 ± 0.013
34 | P143W | 0.0588 ± 0.0029 | 0.0861 ± 0.0026 | 0.751 ± 0.11
35 | I3R | 0.0605 | 0.0792 | 0.376 ± 0.024
36 | I3K | 0.0608 ± 0.001 | 0.0652 ± 0.0057 | 0.308 ± 0.008
37 | I3S | 0.05864 ± 0.00052 | 0.0605 ± 0.0036 | 0.2084 ± 0.0013
38 | E43Q | 0.0614 ± 0.0018 | 0.076 ± 0.0029 | 1.16 ± 0.18
39 | E43D | 0.05754 ± 0.00052 | 0.072 ± 0.012 | 0.744 ± 0.036
40 | E43K | 0.0594 | 0.109 ± 0.02 | 2.36 ± 0.049
41 | R39I | 0.0572 ± 0.0015 | 0.0566 ± 0.0018 | 0.0726 ± 0.0042
42 | R39G | 0.0555 ± 0.00078 | 0.0563 ± 0.0023 | 0.0563 ± 0.0018
43 | R39H | 0.0625 ± 0.0018 | 0.0652 ± 0.0031 | 0.0663 ± 0.0047
44 | V17A | 0.0568 ± 0.001 | 0.0566 ± 0.0013 | 0.622 ± 0.11

Row | Variant | sfGFP reporter fluorescence [1] | sfGFP reporter fluorescence ([2]; ligand: 1 µM Pb) | sfGFP reporter fluorescence ([2]; ligand: 30 µM Zn)
45 | D64K | 0.154 ± 0.049 | 0.382 ± 0.023 | 3.306 ± 0.03
46 | D64T | 0.217 ± 0.0054 | 0.331 ± 0.051 | 2.74 ± 0.3
47 | D64I | 0.256 ± 0.028 | 0.837 ± 0.025 | 3.78 ± 0.41
48 | D64F | 0.267 ± 0.014 | 1.01 ± 0.054 | 3.86 ± 0.28
49 | D64S | 0.0944 ± 0.0013 | 0.22 ± 0.013 | 3.02 ± 0.097
50 | D78A | 0.0713 ± 0.0065 | 0.0689 ± 0.0021 | 0.1 ± 0.0026
51 | F21R | 0.0645 | 0.06212 ± 0.00026 | 0.0685 ± 0.0021
52 | F21G | 0.059 | 0.0577 ± 0.0023 | 0.0588 ± 0.00078
53 | F21V | 0.0625 ± 0.00078 | 0.0608 | 0.0669 ± 0.00078
54 | M60R | 0.0614 ± 0.0034 | 0.0612 ± 0.001 | 0.0619 ± 0.0015
55 | M60I | 0.12 ± 0.0029 | 0.319 ± 0.03 | 2.58 ± 0.063
56 | V16S | 0.06707 ± 0.00052 | 0.1145 ± 0.00026 | 1.22 ± 0.028
57 | V16E | 0.06341 ± 0.00052 | 0.0762 ± 0.001 | 0.986 ± 0.046
58 | V16A | 0.059 ± 0.0015 | 0.0729 ± 0.0015 | 1.06 ± 0.1
59 | V16K | 0.0641 ± 0.0021 | 0.115 ± 0.0021 | 1.93 ± 0.075
60 | V16L | 0.06249 ± 0.00026 | 0.0825 ± 0.0021 | 0.56 ± 0.022
61 | C79Y | 0.0597 ± 0.0031 | 0.0585 ± 0.00078 | 0.0564 ± 0.001
62 | C79R | 0.06011 ± 0.00052 | 0.0629 ± 0.0018 | 0.059 ± 0.001
63 | C79M | 0.05974 ± 0.00052 | 0.06121 ± 0.00052 | 0.0592 ± 0.0013
64 | L129E | 0.0581 ± 0.0013 | 0.0597 ± 0.0021 | 0.0546 ± 0.0015
65 | L129F | 0.0559 ± 0.0013 | 0.0581 ± 0.00078 | 0.0564 ± 0.001
66 | M84A | 0.0618 ± 0.0029 | 0.0687 ± 0.0029 | 0.807 ± 0.02

Row | Variant | sfGFP reporter fluorescence [1] | sfGFP reporter fluorescence ([2]; ligand: 1 µM Pb) | sfGFP reporter fluorescence ([2]; ligand: 30 µM Zn)
67 | L110T | 0.05736 ± 0.00026 | 0.0601 ± 0.001 | 0.158 ± 0.0029
68 | L110Y | 0.0581 ± 0.00078 | 0.0597 | 0.0656 ± 0.001
69 | L110V | 0.0601 ± 0.0021 | 0.06634 ± 0.00052 | 0.502 ± 0.065
70 | L110Q | 0.0555 ± 0.0013 | 0.057 ± 0.00078 | 0.05589 ± 0.00026
71 | P15R | 0.06341 ± 0.00052 | 0.0876 ± 0.0021 | 1.04 ± 0.064
72 | P15Y | 0.0652 ± 0.0021 | 0.0684 ± 0.0034 | 0.368 ± 0.0021
73 | P15A | 0.0674 ± 0.0042 | 0.0953 ± 0.0088 | 0.691 ± 0.02
74 | P15F | 0.0662 ± 0.0018 | 0.0702 ± 0.0049 | 0.256 ± 0.013
75 | L28I | 0.0588 ± 0.00078 | 0.0841 ± 0.0013 | 0.908 ± 0.066
76 | L28N | 0.06285 ± 0.00026 | 0.0592 ± 0.00078 | 0.0605 ± 0.0026
77 | L28F | 0.0603 ± 0.00078 | 0.0784 ± 0.0015 | 0.599 ± 0.018
78 | L28Q | 0.0638 | 0.0619 ± 0.001 | 0.05901 ± 0.00052
79 | C55L | 0.0608 ± 0.001 | 0.0702 ± 0.0013 | 0.173 ± 0.0091
80 | C55F | 0.0634 ± 0.001 | 0.0674 ± 0.001 | 0.0876
81 | C55N | 0.0594 ± 0.0015 | 0.0583 ± 0.0015 | 0.057 ± 0.0034
82 | N83G | 0.0559 ± 0.00078 | 0.0748 ± 0.001 | 0.692 ± 0.13
83 | N83Y | 0.0594 ± 0.0015 | 0.0762 ± 0.001 | 0.0645 ± 0.0015
84 | N83E | 0.0612 ± 0.001 | 0.0612 ± 0.0015 | 0.141 ± 0.0023
85 | N83P | 0.05772 ± 0.00026 | 0.0579 ± 0.001 | 0.0552 ± 0.0023
86 | M60L P61N K104V | 0.153 ± 0.0062 | 0.413 ± 0.017 | 1.56 ± 0.039
87 | D131P | 0.0546 ± 0.0015 | 0.0619 ± 0.0021 | 0.134 ± 0.015
88 | D131S | 0.0618 ± 0.0034 | 0.1033 ± 0.00052 | 0.962 ± 0.087
